The values that follow come from PMC4899250 (Journal of neurochemistry, 2016).

This series deals with the molecule itself. Description: native MS.

Turning to Ac-AGIGDTPSLEDEAAGHVTQARMVSKSKDGTGSDDKKAKG-NH2 [tau^106-144], the “stoichiometry N” value was found to be 2.

For orientation: stoichiometry N means a count of units in the complex or per binding partner.
